# Non-standard residues stand in square brackets, D forms with d. No end group written: not given here. pS = N[C@@H](COP(=O)(O)O)C(=O)O
# B1: Pin1 WW domain (domain or fragment)
# chain: MADEEKLPPGWEKRMSRSSGRVYYFNHITNASQWERPSGNS
# Key:
# Test in all cases: ITC
# full-length Pin1 = full-length Pin1 (UniProt Q13526 1-163)
# Pin1 WW domain = target: B1
# CPEB1 pS138 peptide = CPEB1 pS138 peptide (UniProt Q9BZB8, phosphoserine at 138)
# CPEB1 pS144 peptide = CPEB1 pS144 peptide (UniProt Q9BZB8, phosphoserine at 144)
# CPEB1 pS184 peptide = CPEB1 pS184 peptide (UniProt Q9BZB8, phosphoserine at 184)
# CPEB1 pS423 peptide = CPEB1 pS423 peptide (UniProt Q9BZB8, phosphoserine at 423)
# CPEB1 pS248 peptide = CPEB1 pS248 peptide (UniProt Q9BZB8, phosphoserine at 248)
# Chain of full-length Pin1 (Q13526 whole entry, the tested form may be a part): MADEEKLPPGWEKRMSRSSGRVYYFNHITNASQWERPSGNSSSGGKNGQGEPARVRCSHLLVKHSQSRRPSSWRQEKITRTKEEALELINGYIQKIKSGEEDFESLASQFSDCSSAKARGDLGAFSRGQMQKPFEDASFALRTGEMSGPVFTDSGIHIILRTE
Kd (full-length Pin1),Kd (Pin1 WW domain),Kd (CPEB1 pS138 peptide),Kd (CPEB1 pS144 peptide),Kd (CPEB1 pS184 peptide),Kd (CPEB1 pS423 peptide),Kd (CPEB1 pS248 peptide),Binder
32.3 µM,30.3 µM,–,–,–,–,–,RI[pS]PPLPF-NH2 [CPEB1 pS210 peptide]
–,–,71.3 µM,75.4 µM,28.6 µM,158 µM,47.6 µM,B1
